Reference: publication PMC13252954

Assays:
[1] = molecular target: PIΔC SVMP metalloproteinase (MP) domain (Echis ocellatus); experiment: SEC
[2] = molecular target: integrin αIIbβ3 (human (endogenous in platelets)) (UniProt P08514)
[3] = molecular target: PII SVMP zymogen (Venom metalloprotease PII-SVMP EOC00006, Echis ocellatus) (Echis ocellatus); experiment: SEC + other: non-reducing SDS-PAGE

Chain of UniProt P08514 (P08514 32-1039, chain 1 of 2): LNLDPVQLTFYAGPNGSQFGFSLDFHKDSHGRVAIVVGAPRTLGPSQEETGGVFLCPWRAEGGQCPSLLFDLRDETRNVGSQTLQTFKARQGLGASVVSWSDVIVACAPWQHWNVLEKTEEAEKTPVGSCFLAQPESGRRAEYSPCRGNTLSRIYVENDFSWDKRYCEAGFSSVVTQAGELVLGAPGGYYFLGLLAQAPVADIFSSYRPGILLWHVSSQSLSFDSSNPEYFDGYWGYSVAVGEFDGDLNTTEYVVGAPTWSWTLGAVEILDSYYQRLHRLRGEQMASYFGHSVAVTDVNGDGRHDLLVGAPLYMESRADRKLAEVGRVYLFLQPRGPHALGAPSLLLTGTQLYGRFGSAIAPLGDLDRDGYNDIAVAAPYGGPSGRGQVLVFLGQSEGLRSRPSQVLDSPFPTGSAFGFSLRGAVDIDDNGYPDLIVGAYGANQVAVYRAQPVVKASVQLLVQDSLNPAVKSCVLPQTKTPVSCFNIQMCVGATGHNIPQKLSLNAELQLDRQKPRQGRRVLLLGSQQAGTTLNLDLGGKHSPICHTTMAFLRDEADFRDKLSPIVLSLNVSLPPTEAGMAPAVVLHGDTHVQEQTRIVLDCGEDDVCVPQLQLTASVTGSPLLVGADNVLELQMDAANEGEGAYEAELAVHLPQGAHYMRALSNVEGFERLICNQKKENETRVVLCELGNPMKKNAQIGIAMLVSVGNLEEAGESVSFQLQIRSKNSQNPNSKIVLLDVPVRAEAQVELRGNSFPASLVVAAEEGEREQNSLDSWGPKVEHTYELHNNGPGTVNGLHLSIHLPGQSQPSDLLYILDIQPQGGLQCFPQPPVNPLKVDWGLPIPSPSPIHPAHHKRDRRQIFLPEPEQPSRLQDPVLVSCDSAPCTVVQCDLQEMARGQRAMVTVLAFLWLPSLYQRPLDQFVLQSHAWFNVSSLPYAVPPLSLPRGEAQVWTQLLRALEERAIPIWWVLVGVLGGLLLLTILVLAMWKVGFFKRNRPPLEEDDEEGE
Chain of UniProt P08514 (P05106 27-788, chain 2 of 2, further chain): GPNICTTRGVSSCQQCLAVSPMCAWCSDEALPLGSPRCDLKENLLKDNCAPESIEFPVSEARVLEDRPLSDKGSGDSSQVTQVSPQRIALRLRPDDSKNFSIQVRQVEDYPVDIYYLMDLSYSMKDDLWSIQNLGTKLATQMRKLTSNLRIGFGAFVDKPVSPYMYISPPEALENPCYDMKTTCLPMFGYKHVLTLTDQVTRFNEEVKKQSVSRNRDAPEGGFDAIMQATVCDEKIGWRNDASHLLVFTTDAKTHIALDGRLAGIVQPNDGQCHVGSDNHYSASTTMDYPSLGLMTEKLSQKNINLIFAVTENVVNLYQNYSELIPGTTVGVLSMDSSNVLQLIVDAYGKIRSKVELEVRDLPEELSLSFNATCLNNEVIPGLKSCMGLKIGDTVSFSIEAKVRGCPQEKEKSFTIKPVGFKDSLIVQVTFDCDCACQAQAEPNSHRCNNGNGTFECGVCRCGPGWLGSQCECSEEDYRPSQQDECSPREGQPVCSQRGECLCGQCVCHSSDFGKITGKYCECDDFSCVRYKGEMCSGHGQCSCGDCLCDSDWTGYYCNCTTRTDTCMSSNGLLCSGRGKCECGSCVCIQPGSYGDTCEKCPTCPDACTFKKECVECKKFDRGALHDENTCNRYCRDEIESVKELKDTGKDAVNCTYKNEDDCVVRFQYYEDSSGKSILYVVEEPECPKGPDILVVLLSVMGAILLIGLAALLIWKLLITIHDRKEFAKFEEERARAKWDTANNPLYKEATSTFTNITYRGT

Substance PI SVMP prodomain (domain or fragment) has a stoichiometry N [1] of 1.
For activated PII SVMP (enzyme), the 2-MeS-ADP-induced platelet aggregation in human platelet-rich plasma (plate aggregometry), % aggregation at 500 nM SVMP (% aggregation) [2] was 12.
For “PII SVMP zymogen (Venom metalloprotease PII-SVMP EOC00006, Echis ocellatus) (from UniProt A0A3G1E3U2 1-494) (enzyme)”, the stoichiometry N [3] was 2.
